# Patent US20050053994
# Biological target: actin
row,Protein,"DNA-hydrolytic activity in plasmid nicking assay (supercoiled pBR322, agarose gel)"
1,human DNase I (protein) LKIAAFNIQTFGETKMSNATLVSYIVQILSRYDIALVQEVRDSHLTAVGKLLDNLNQDAPDTYHYVVSEPLGRNSYKERYLFVYRPDQVSAVDSYYYDDGCEPCGNDTFNREPAIVRFFSRFTEVREFAIVPLHAAPGDAVAEIDALYDVYLDVQEKWGLEDVMLMGDFNAGCSYVRPSQWSSIRLWTSPTFQWLIPDSADTTATPTHCAYDRIVVAGMLLRGAVVPDSALPFNFQAAYGLSDQLAQAISDHYPVEVMLK,the DNA-hydrolytic activity of human DNase I was inhibited by added actin in a concentration-dependent manner
2,human LS-DNase (protein) MRICSFNVRSFGESKQEDKNAMDVIVKVIKRCDIILVMEIKDSNNRICPILMEKLNRNSRRGITYNYVISSRLGRNTYKEQYAFLYKEKLVSVKRSYHYHDYQDGDADVFSREPFVVWFQSPHTAVKDFVIIPLHTTPETSVKEIDELVEVYTDVKHRWKAENFIFMGDFNAGCSYVPKKAWKNIRLRTDPRFVWLIGDQEDTTVKKSTNCAYDRIVLRGQEIVSSVVPKSNSVFDFQKAYKLTEEEALDVSDHFPVEFKLQSSRAFTNSKKSVTLRKKTKSKRS,the DNA-hydrolytic activity of LS-DNase was not inhibited by concentrations of actin that fully inhibited human DNase I
